This is an account of results in patent US20250109187A1 (NOVAVAX, published 2025).

Some results are limits rather than exact numbers.

In test [1] the target is T1, XBB.1.16.6 rS (SARS-CoV-2 variant XBB.1.16.6, UniProt P0DTC2 14-1273).
In test [2] the target is T2, FL.1.5.1 rS (SARS-CoV-2 variant FL.1.5.1, UniProt P0DTC2 14-1273).
In test [3] the target is T3, XBB.2.3 rS (SARS-CoV-2 variant XBB.2.3, UniProt P0DTC2 14-1273).
The target in test [4] is T4, SARS-CoV-2 Omicron XBB.1.5 rS (SARS-CoV-2 variant XBB.1.5, UniProt P0DTC2 14-1273).
The target of test [5] is T5, EG.5.1 rS (SARS-CoV-2 variant EG.5.1, UniProt P0DTC2 14-1273).
In test [6] the target is T6, XBB.1.16 rS (SARS-CoV-2 variant XBB.1.16, UniProt P0DTC2 14-1273).
The target in test [7] is T1, XBB.1.16.6 rS. The experiment in a line: ELISA: rS coated, mAb titrated, anti-mouse HRP. On the technique in general: ELISA stands for enzyme-linked immunosorbent assay.
Test [8] addresses T2, FL.1.5.1 rS. The experiment in a line: ELISA: rS coated, mAb titrated, anti-mouse HRP.
The target in test [9] is T3, XBB.2.3 rS. The experiment in a line: ELISA: rS coated, mAb titrated, anti-mouse HRP.
The target of test [10] is T4, SARS-CoV-2 Omicron XBB.1.5 rS. Briefly: ELISA: rS coated, mAb titrated, anti-mouse HRP.
In test [11] the target is T5, EG.5.1 rS. The experiment in a line: ELISA: rS coated, mAb titrated, anti-mouse HRP.
For test [12], the target named is T6, XBB.1.16 rS. The experiment in a line: ELISA: rS coated, mAb titrated, anti-mouse HRP.

B1: NVX.62.12 (antibody, V domains shown)
VH: QVQLQQSGAELVRPGVSVKISCKGSGYTFTDYAMHWVKQSHAKSLEWIGVISTYSGDAYYNQKFKGKATVTVDKSSSTAYMELARLTSEDSAIYFCARNWDDYYAMDYWGQGTSVTVSS
VL: QIILSQSPAILSASPGERVTMTCRATSSVSYMHWYRQKPGSSPQPWIYATSNLASGVPARFSGSGSGTSYSLTISRVEAEDAATYYCQQWSGNPWTFGGGTKLEIK
notes: also called mAb NVX.62.12
In the case of B1, the IC50 in [1], in test [2], in test [3], in [4], in test [5] and in [6] was over 3 µg/mL each time. In addition, the EC50 (as a rule, the concentration needed to bring the measured effect to its halfway point) was 0.063 µg/mL in [7]; 0.021 µg/mL in test [8]; 0.067 µg/mL in test [9]; 0.056 µg/mL in test [10]; 0.029 µg/mL in [11]; 0.044 µg/mL in test [12].

B2: NVX.324.6 (antibody, V domains shown)
VH: EVQLQQSGPELGKPGTSMKISCKASGYSFTGYTMNWVKQSHGKNLEWIGLINPYNGGTSYNQKFKDKATLTVDKSSSTAYMELLSLTSEDSAVYYCVREHYYYDSGYGGYYAMDYWGQGTSVTVSS
VL: QIVLSQSPAILSASPGDKVTMTCRASASVNYMYWYQQKPGSSPKPWIYATSNLASGVPARFSGSGSGTSYSLTISRVEAEDAAIYYCQQWSSNPYTFGGGTKLEIK
notes: also called mAb NVX.324.6
As for B2, the half-inhibitory concentration (IC50) in test [1], in [2], in [3], in test [4], in [5] and in [6] was over 3 µg/mL each time. Also, the EC50 in test [7] was found to be 0.021 µg/mL; in [8], 0.014 µg/mL; in [9], 0.028 µg/mL; in test [10] it was 0.03 µg/mL; in test [11], 0.018 µg/mL; in test [12], 0.027 µg/mL.
